To fix the notation:
B4: ExbD construct from E. coli lacking the N-terminal residues 43-60 (ExbD^(Ec, ΔNIBS)) (domain or fragment, Escherichia coli, UniProt P0ABV2 61-141, looked up)
chain: EKPVYLSVKADNSMFIGNDPVTDETMITALNALTEGKKDTTIFFRADKTVDYETLMKVMDTLHQAGYLKIGLVGEETAKAK
notes: ExbD of Escherichia coli, periplasmic domain (43-141) lacking the N-terminal residues 43-60; the limits 61-141 are worked out from these two statements; not shown: His-tag, N-terminal, cleaved
B5: periplasmic domain of ExbD from Escherichia coli, residues 43-141 (ExbD^(Ec, peri)) (domain or fragment, UniProt P0ABV2 43-141, looked up)
chain: VDVKVNLPASTSTPQPRPEKPVYLSVKADNSMFIGNDPVTDETMITALNALTEGKKDTTIFFRADKTVDYETLMKVMDTLHQAGYLKIGLVGEETAKAK
notes: ExbD of Escherichia coli, periplasmic domain, residues 43-141; not shown: His-tag, N-terminal, cleaved

Data set [1] addresses B5. The data set is described as follows: NMR titration; 2D [1H-15N]-HMQC spectra of 15N-labeled ExbD periplasmic domain with and without the HasB or TonB peptide; 293 K. To be noted: both partners purified.
Data set [2] concerns the target B4. Kind of data set: crystal structure; 2 mM ExbD^(Ec, ΔNIBS) with 10 mM TonB peptide in 50 mM Tris-HCl, 50 mM NaCl, pH 7.0; crystals in 10% w/v glycerol and 3 M ammonium sulfate, 18 °C; 1.5 Å. Particulars: both partners purified.
Data set [3] concerns the molecule itself. The data set is described as follows: AUC; sedimentation velocity, 100 μM ExbD alone, 42000 rpm overnight, 50 mM sodium phosphate, 50 mM NaCl, pH 7.0; c(S) model in SEDFIT.
The target in data set [4] is T1, periplasmic part of HasB from Serratia marcescens, residues 37-263 (HasB^(Sm, peri)) (Serratia marcescens, UniProt Q79AD1 37-263).
T1 construct: HasB, the TonB paralog of the Heme Acquisition System of Serratia marcescens, residues 37-263; 15N-labelled in the NMR experiment; also called HasB_(37-263, Sm); source: bacterial expression (20 h at 30 °C), purified (cation exchange, SEC)
T1 sequence (looked up): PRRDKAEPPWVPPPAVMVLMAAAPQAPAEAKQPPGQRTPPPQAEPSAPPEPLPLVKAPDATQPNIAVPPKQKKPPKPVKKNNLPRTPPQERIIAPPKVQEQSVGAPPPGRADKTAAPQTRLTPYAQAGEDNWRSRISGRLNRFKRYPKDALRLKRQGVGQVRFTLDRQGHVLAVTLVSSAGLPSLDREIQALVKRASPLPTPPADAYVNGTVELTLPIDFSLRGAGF
The data set is described as follows: NMR titration; 2D [1H-15N]-TROSY spectra of 15N-labeled HasB^(Sm, peri) or TonB^(Ec, peri) alone and upon addition of the unlabeled ExbD periplasmic domain; 293 K. Particulars: both partners purified.

Data set [5] concerns the molecule itself. Kind of data set: NMR spectra of a disulfide-bridged mutant; NMR fingerprint spectra of the V47C mutants compared with the wild type (Supplementary Fig. 7).
Data set [6] concerns the molecule itself. The data set is described as follows: crystal structure; 2 mM ExbD^(Ec, ΔNIBS) with 10 mM TonB peptide in 50 mM Tris-HCl, 50 mM NaCl, pH 7.0; crystals in 10% w/v glycerol and 3 M ammonium sulfate, 18 °C; 1.5 Å.
Data set [7] deals with T2, periplasmic part of TonB from Escherichia coli, residues 34-239 (TonB^(Ec, peri)) (Escherichia coli, UniProt P02929 34-239).
T2 construct: TonB of Escherichia coli, residues 34-239; 15N-labelled in the NMR experiment; not shown: His-tag, N-terminal, cleaved
T2 sequence (P02929 34-239): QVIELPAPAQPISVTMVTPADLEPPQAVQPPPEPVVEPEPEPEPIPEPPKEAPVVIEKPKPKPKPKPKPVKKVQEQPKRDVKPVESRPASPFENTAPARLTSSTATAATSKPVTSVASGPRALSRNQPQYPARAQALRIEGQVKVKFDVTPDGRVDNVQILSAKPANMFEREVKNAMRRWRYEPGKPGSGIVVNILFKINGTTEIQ
The data set is described as follows: NMR titration; 2D [1H-15N]-TROSY spectra of 15N-labeled HasB^(Sm, peri) or TonB^(Ec, peri) alone and upon addition of the unlabeled ExbD periplasmic domain; 293 K. Particulars: both partners purified.

Data set [8] concerns the molecule itself. Kind of data set: AUC; sedimentation velocity, 100 μM ExbD^(Ec, peri) with 300 μM TonB peptide, 42000 rpm overnight, 50 mM sodium phosphate, 50 mM NaCl, pH 7.0.

B1: TonB peptide (KKAQPISVTMVTPADLEPPQAKK) (peptide)
peptide: KKAQPISVTMVTPADLEPPQAKK
notes: Probably a synthetic peptide
For the molecule B1, the binding result in data set [1] and in data set [2] was “binds” each time.

B2: periplasmic domain of ExbD from Serratia marcescens, residues 43-140 (ExbD^(Sm, peri)) (domain or fragment, UniProt V5YUQ0 43-140, looked up)
chain: VDIRVDLPASSAKPQPRPEKPVFLSVKADKQLYVGDQPVNADQLTSVLDQRTQANKETTIFFQADKSVDYETLMSVMDTLRKAGYLKVGLVGMEGAAK
notes: ExbD of Serratia marcescens (Has system), periplasmic domain, residues 43-140; 15N- or 13C,15N-labelled in the NMR samples; also called ExbD^(Sm, peri) wild type (wt); not shown: His-tag, N-terminal, cleaved
B2: in data set [3], the “stoichiometry N” value is 2. For the same molecule, the binding result in data set [4] is reported as “binds”.

B3: ExbD^(Sm, peri) V47C (domain or fragment)
chain: VDIRCDLPASSAKPQPRPEKPVFLSVKADKQLYVGDQPVNADQLTSVLDQRTQANKETTIFFQADKSVDYETLMSVMDTLRKAGYLKVGLVGMEGAAK
modifications: disulfide bridge between the Cys 47 of the two subunits
notes: ExbD of Serratia marcescens, periplasmic domain, residues 43-140, with V47C; also called disulfide-bridged ExbD^(Sm, peri) V47C mutant; not shown: His-tag, N-terminal, cleaved
For B3, the binding result in data set [5] was “binds”.
In the case of B4, the binding result in data set [6] is given as “binds”.
On to B5, for which the binding result in data set [7] was “binds”. In data set [8], the “stoichiometry N” value was determined as 2.

B6: ExbD^(Ec, peri) V47C (domain or fragment, Escherichia coli, UniProt P0ABV2 43-141, looked up)
chain: VDVKCNLPASTSTPQPRPEKPVYLSVKADNSMFIGNDPVTDETMITALNALTEGKKDTTIFFRADKTVDYETLMKVMDTLHQAGYLKIGLVGEETAKAK
modifications: disulfide bridge between the Cys 47 of the two subunits
notes: ExbD of Escherichia coli, periplasmic domain, residues 43-141, with V47C; not shown: His-tag, N-terminal, cleaved
In the case of B6, the binding result in data set [5] is “binds”.

Broadly, the stoichiometry N is the number of molecules, sites or subunits per partner or assembly.

The record behind these values is PMC10771500, “Ton motor conformational switch and peptidoglycan role in bacterial nutrient uptake” (Nature Communications, 2024).
